Assay results as given in paper PMC7507306, “Highly active rubiscos discovered by systematic interrogation of natural sequence diversity” (The EMBO Journal, 2020).

Experiments:
Assay in all cases: SEC; analytical gel filtration of the purified rubisco; oligomer state read from the elution; conditions not shown (Appendix)
[1] = biological target: Acidithiobacillus ferrooxidans rubisco (form-II) (Acidithiobacillus ferrooxidans)
[2] = biological target: Gallionella sp. rubisco (form-II) (Gallionella sp.)
[3] = biological target: Sulfurivirga caldicuralii rubisco (form-II) (Sulfurivirga caldicuralii)
[4] = biological target: Zetaproteobacteria_53_45 rubisco (form-II) (Zetaproteobacteria_53_45)
[5] = biological target: Zetaproteobacterium rubisco (form-II) (Zetaproteobacterium)
[6] = biological target: the molecule itself

“Acidithiobacillus ferrooxidans rubisco (form-II) (enzyme)” was tested, and the stoichiometry N [1] was 6.

“Gallionella sp. rubisco (form-II) (enzyme)” showed a stoichiometry N [2] of 2.

With “Sulfurivirga caldicuralii rubisco (form-II) (enzyme)” the stoichiometry N [3] was 4.

“Zetaproteobacteria_53_45 rubisco (form-II) (enzyme)” showed a stoichiometry N [4] of 2.

“Zetaproteobacterium rubisco (form-II) (enzyme)” was tested, and the stoichiometry N [5] was 2.

B1: Hydrogenovibrio marinus rubisco (form-II) (enzyme, UniProt Q59462 1-463, looked up)
chain: MDQSNRYADLTLTEEKLVADGNHLLVAYRLKPAAGYGFLEVAAHVAAESSTGTNVEVSTTDDFTRGVDALVYEIDEAAFGDKGGLMKIAYPVDLFDPNLIDGHYNVSHMWSLILGNNQGMGDHEGLRMLDFLVPEKMVKRFDGPATDISDLWKVLGRPEVDGGYIAGTIIKPKLGLRPEPFAKACYDFWLGGDFIKNDEPQANQNFCPMEVVIPKVAEAMDRAQQATGQAKLFSANVTADFHEEMIKRGEYVLGEFAKYGNEKHVAFLVDGFVTGPAGVTTSRRAFPDTYLHFHRAGHGAVTSYKSPMGMDPLCYMKLARLMGASGIHTGTMGYGKMEGHNDERVLAYMLERDECQGPYFYQKWYGMKPTTPIISGGMDALRLPGFFENLGHGNVINTCGGGSFGHIDSPAAGGISLGQAYACWKTGAEPIEAPREFARAFESFPGDADKIFPGWREKLGVHK
notes: form-II rubisco large subunit from Hydrogenovibrio marinus; scarless tag cleavage gives the native rubisco; source: E. coli BL21(DE3), purified (nickel magnetic beads, eluted by on-bead cleavage of the SUMO tag with bdSENP1); not shown: 14xHis, N-terminal, cleaved; bdSUMO, N-terminal, cleaved
With B1 the “stoichiometry N” value [6] was 2.
